Results published in US20200392227A1 (LYVGEN BIOPHARMA, published 2020).
Where two headings read alike, the source gives them in different places. One block for each binder: values may come before it.

Columns and labels:
[1] = molecular target: T1, human FcRI protein (MednaBio, E1031) (human, UniProt P12314 16-288, limits assumed); test: BLI
T1 construct: Bought; loaded on anti-penta-HIS biosensors; also called FcγRI
Procedure, shortened: (§1)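 Binding was measured by biolayer interferometry on an Octet Red96 System. Commercial human Fc receptor proteins were loaded at 20 μg/mL onto anti-penta-HIS biosensors, which were then dipped into an 8-point 1:3 dilution series of test IgG starting at 300 nM in PBS with 0.1% BSA and 0.02% Tween-20, at pH 7.2 for Fcγ receptors and pH 6 for FcRn. Kd, kon and koff were obtained by global fitting, with data fitted to a 1:1 binding model.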

[2] = molecular target: T2, human FcRIIA protein (MednaBio, E1033) (human, UniProt P12318 34-218, limits assumed); test: BLI
T2 construct: Bought; also called FcγRIIA
T2 sequence (looked up): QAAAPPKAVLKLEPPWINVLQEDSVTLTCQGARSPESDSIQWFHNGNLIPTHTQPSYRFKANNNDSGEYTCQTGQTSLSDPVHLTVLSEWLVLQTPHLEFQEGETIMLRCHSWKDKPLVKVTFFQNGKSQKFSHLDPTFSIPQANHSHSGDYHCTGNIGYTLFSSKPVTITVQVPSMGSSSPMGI
Procedure, shortened: as §1

[3] = molecular target: T3, human FcRIIB/C protein (MednaBio, E1034) (human, UniProt P31994 43-217, limits assumed); test: BLI
T3 construct: Bought as FcRIIB/C; also called FcγRIIB; CD32B
T3 sequence (looked up): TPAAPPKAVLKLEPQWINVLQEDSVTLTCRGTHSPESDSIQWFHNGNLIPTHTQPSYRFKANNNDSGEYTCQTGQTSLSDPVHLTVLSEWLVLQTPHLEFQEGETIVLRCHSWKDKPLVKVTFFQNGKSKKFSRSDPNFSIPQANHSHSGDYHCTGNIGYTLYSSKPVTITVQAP
Procedure, shortened: as §1

[4] = molecular target: T4, human FcRIIIA-F158 protein (MednaBio, E1036) (human, UniProt P08637 17-208); test: BLI
T4 construct: Bought; also called FcγRIIIA(F)
Procedure, shortened: as §1

[5] = molecular target: T5, human FcRIIIA-V158 protein (MednaBio, E1035) (human, UniProt P08637 17-208); test: BLI
T5 construct: Bought; also called FcγRIIIA(V); FcgRIIIA(V)
Procedure, shortened: as §1

[6] = molecular target: T6, human FcRIIIB protein (MednaBio, E1037) (human, UniProt O75015 17-200); test: BLI
T6 construct: Bought; also called FcγRIIIB; FcgRIIIB
Procedure, shortened: as §1

[7] = molecular target: T7, human FcRn protein (MednaBio, E1032) (human, UniProt P55899 24-297; P61769 21-119); test: BLI
T7 construct: Bought; assays at pH 6
Procedure, shortened: as §1

[8] = molecular target: T8, human FcγRIIA(R131) expressed on CHO cells (human, UniProt P12318 34-317); test: FACS, CHO cells expressing FcγRIIA(R131)
T8 construct: whole, on cells
T8 sequence (looked up): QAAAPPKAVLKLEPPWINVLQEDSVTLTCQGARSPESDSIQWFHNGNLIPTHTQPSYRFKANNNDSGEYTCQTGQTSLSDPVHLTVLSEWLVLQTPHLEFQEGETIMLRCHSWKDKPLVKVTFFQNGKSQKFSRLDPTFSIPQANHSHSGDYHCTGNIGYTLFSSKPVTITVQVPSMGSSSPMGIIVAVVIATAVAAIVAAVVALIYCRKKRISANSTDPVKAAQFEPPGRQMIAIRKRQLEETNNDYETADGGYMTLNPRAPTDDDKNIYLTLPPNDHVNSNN
Description: FIGS. 1A-1W are charts showing binding activity of various IgG variants as indicated to different types of Fcγ receptors expressed on CHO-K1 cells at the various concentrations as indicated. The concentrations of each IgG variant, from left to right, are 0 μg/ml, 0.3 μg/ml, 1 μg/ml, 3 μg/ml, and 10 μg/ml in FIGS. 1A-1C, 1E-J, 1L-1M, 1P-1R, and 1T-1V. For FIGS. 1D, 1K, 10, 1S, and 1w the bars, from left to right, correspond to the following concentrations of IgG variant: 0.3 μg/ml, 1 μg/ml, 3 μg/ml, and 10 μg/ml.
For FACS analysis of the IgG mutants' binding to different FcγRs, FcγR overexpressing CHO cells were harvested using trypsin-EDTA and were suspended in cold staining buffer (3% BSA in PBS). Test IgG mutants, which were diluted in staining buffer, were added into the cells. The mixture was incubated 4° C. for 2 hours, and then washed twice with cold staining buffer and re-suspended in PE-labeled anti-human IgG followed by incubation at 4° C. for 2 hours. The mixture was washed twice with staining buffer and re-suspended in 2% PFA in PBS for FACS.

[9] = molecular target: T1, human FcRI protein (MednaBio, E1031); test: BLI; remark: listed apart in the source
Procedure, shortened: as §1

[10] = molecular target: T2, human FcRIIA protein (MednaBio, E1033); test: BLI; remark: listed apart in the source
Procedure, shortened: as §1

[11] = molecular target: T3, human FcRIIB/C protein (MednaBio, E1034); test: BLI; remark: listed apart in the source
Procedure, shortened: as §1

[12] = molecular target: T4, human FcRIIIA-F158 protein (MednaBio, …); test: BLI; remark: listed apart in the source
Procedure, shortened: as §1

[13] = molecular target: T5, human FcRIIIA-V158 protein (MednaBio, …); test: BLI; remark: listed apart in the source
Procedure, shortened: as §1

[14] = molecular target: T6, human FcRIIIB protein (MednaBio, E1037); test: BLI; remark: listed apart in the source
Procedure, shortened: as §1

[15] = molecular target: T7, human FcRn protein (MednaBio, E1032); test: BLI; remark: listed apart in the source
Procedure, shortened: as §1

T6 sequence (O75015 17-200 limits assumed): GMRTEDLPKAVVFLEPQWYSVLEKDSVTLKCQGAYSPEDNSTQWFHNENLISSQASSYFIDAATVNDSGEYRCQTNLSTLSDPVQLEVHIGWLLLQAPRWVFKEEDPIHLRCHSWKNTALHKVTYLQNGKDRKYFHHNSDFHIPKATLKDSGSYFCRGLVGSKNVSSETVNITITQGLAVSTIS
T5 sequence (P08637 17-208 F176V): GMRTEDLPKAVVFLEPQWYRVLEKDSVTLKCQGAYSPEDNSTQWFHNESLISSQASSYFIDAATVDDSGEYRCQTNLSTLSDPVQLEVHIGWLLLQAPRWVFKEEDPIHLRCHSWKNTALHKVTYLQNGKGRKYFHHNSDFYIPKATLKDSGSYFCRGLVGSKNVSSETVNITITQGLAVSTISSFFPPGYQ
T1 sequence (P12314 16-288 limits assumed): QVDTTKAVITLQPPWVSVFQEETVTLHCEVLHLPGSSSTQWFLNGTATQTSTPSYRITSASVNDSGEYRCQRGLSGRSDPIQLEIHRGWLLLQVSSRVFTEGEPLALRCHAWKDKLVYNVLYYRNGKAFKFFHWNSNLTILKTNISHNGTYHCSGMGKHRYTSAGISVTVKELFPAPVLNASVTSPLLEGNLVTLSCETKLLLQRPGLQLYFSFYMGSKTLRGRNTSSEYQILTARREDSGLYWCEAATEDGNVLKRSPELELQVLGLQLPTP
T4 sequence (P08637 17-208 limits assumed): as the sequence (P08637 17-208 F176V) above, with V160F counted along it

Kd [1]: 235 nM
koff [1]: 0.0337 s⁻¹
kon [1]: 144000 M⁻¹ s⁻¹
Kd [2]: 800 nM
koff [2]: 0.247 s⁻¹
kon [2]: 310000 M⁻¹ s⁻¹
Kd [3]: 656 nM
koff [3]: 0.156 s⁻¹
kon [3]: 238000 M⁻¹ s⁻¹
Kd [4]: 1500 nM
koff [4]: 0.175 s⁻¹
kon [4]: 116000 M⁻¹ s⁻¹
Kd [5]: 456 nM
koff [5]: 0.042 s⁻¹
kon [5]: 92300 M⁻¹ s⁻¹
Kd [6]: 556 nM
koff [6]: 0.144 s⁻¹
kon [6]: 258000 M⁻¹ s⁻¹
Kd [7]: 18.8 nM
koff [7]: 0.015 s⁻¹
kon [7]: 803000 M⁻¹ s⁻¹
binding result [8]: no binding (tested: 10 ug/ml)
B1: anti-CD137 IgG1 with Fc variant G1mAA (antibody)
heavy: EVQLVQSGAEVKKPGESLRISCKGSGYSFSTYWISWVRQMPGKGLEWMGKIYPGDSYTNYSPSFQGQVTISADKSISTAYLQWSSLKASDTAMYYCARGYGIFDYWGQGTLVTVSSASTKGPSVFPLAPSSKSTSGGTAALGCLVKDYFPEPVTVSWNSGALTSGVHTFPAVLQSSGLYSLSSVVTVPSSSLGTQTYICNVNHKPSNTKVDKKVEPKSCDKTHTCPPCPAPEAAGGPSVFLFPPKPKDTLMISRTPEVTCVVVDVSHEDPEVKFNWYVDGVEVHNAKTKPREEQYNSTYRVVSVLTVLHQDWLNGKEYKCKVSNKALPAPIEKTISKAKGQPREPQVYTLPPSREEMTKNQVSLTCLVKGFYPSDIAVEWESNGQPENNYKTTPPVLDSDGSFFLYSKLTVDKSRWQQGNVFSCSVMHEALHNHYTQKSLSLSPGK
light: SYELTQPPSVSVSPGQTASITCSGDNIGDQYAHWYQQKPGQSPVLVIYQDKNRPSGIPERFSGSNSGNTATLTISGTQAMDEADYYCATYTGFGSLAVFGGGTKLTVLGQPKAAPSVTLFPPSSEELQANKATLVCLISDFYPGAVTVAWKADSSPVKAGVETTTPSKQSNNKYAASSYLSLTPEQWKSHRSYSCQVTHEGSTVEKTVAPTECS
notes: copies: 2 + 2

Kd [9]: 528 nM
koff [9]: 0.193 s⁻¹
kon [9]: 365000 M⁻¹ s⁻¹
Kd [10]: 977 nM
koff [10]: 0.234 s⁻¹
kon [10]: 240000 M⁻¹ s⁻¹
Kd [11]: 2220 nM
koff [11]: 0.118 s⁻¹
kon [11]: 53600 M⁻¹ s⁻¹
Kd [12]: 284 nM
koff [12]: 0.303 s⁻¹
kon [12]: 1.06e+06 M⁻¹ s⁻¹
Kd [13]: 217 nM
koff [13]: 0.309 s⁻¹
kon [13]: 1.42e+06 M⁻¹ s⁻¹
Kd [14]: 216 nM
koff [14]: 0.297 s⁻¹
kon [14]: 1.37e+06 M⁻¹ s⁻¹
Kd [15]: 7.61 nM
koff [15]: 0.0133 s⁻¹
kon [15]: 1.75e+06 M⁻¹ s⁻¹
binding result [8]: no binding (tested: 10 ug/ml)
B2: anti-CD137 IgG4 with Fc variant G4m30 (antibody)
heavy: EVQLVQSGAEVKKPGESLRISCKGSGYSFSTYWISWVRQMPGKGLEWMGKIYPGDSYTNYSPSFQGQVTISADKSISTAYLQWSSLKASDTAMYYCARGYGIFDYWGQGTLVTVSSASTKGPSVFPLAPCSRSTSESTAALGCLVKDYFPEPVTVSWNSGALTSGVHTFPAVLQSSGLYSLSSVVTVPSSSLGTKTYTCNVDHKPSNTKVDKRVESKYGPPCPPCPAPEFLPSVFLFPPKPKDTLMISRTPEVTCVVVDVSQEDPEVQFNWYVDGVEVHNAKTKPREEQFNSTYRVVSVLTVLHQDWLNGKEYKCKVSNKGLPSSIEKTISKAKGQPREPQVYTLPPSQEEMTKNQVSLTCLVKGFYPSDIAVEWESNGQPENNYKTTPPVLDSDGSFFLYSRLTVDKSRWQEGNVFSCSVMHEALHNHYTQKSLSLSLGK
light: B1 light
notes: also called G430; copies: 2 + 2
